The record followed here is patent US20200071671A1.

Some results are limits rather than exact numbers.

The target in the test is hCCNT1-C261Y (human) (UniProt O60563). The experiment in a line: cell-based or functional assay.
Chain of UniProt O60563 (O60563 whole entry C261Y): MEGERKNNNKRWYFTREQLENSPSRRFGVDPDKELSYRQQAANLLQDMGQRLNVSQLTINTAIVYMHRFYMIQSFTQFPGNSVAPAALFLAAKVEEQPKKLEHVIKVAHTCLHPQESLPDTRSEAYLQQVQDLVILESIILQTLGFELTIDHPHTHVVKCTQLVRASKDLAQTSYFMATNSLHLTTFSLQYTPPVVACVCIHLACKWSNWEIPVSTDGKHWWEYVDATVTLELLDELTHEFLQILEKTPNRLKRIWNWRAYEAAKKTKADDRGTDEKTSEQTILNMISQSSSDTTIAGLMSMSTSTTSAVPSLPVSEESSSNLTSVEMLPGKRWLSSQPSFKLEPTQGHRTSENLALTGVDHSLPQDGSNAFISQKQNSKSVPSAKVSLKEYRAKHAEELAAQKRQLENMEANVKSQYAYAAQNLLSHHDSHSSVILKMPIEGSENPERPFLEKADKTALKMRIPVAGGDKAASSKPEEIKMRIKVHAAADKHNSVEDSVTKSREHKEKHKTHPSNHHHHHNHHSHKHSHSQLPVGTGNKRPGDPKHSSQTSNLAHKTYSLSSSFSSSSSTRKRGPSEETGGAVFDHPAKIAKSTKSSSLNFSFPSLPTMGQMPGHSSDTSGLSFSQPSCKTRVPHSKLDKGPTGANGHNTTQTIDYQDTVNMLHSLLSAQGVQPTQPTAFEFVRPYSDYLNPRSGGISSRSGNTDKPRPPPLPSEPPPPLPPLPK

Regarding HIV-1 Tat protein, the fold decrease in Tat-dependent GFP expression, dual-colour single-round HIV-1 reporter virus, hCCNT1-C261Y Jurkat cells against wild-type parental cells is > 16 fold.
